# Assay results reported in IntAct's records for PubMed 18388957.
# B1: Inhibitor of growth protein 1 (Homo sapiens), Q9UK53-2 (parent)
# chain: MLSPANGEQLHLVNYVEDYLDSIESLPFDLQRNVSLMREIDAKYQEILKELDECYERFSRETDGAQKRRMLHCVQRALIRSQELGDEKIQIVSQMVELVENRTRQVDSHVELFEAQQELGDTAGNSGKAGADRPKGEAAAQADKPNSKRSRRQRNNENRENASSNHDHDDGASGTPKEKKAKTSKKKKRSKAKAEREASPADLPIDPNEPTYCLCNQVSYGEMIGCDNDECPIEWFHFSCVGLNHKPKGKWYCPKCRGENEKTMDKALEKSKKERAYNR
# Variants of: B1
# Settings: with nqo1_human NQO1, P15559
row,Variant,effect of a mutation on the interaction
1,MLSPANGEQLHLVNYVEDYLDSIESLPFDLQRNVSLMREIDAKYQEILKELDECYERFSRETDGAQKRRMLHCVQRALIRSQELGDEKIQIVSQMVELVENRTRQVDSHVELFEAQQELGDTAGNAGKAGADRPKGEAAAQADKPNSKRSRRQRNNENRENASSNHDHDDGASGTPKEKKAKTSKKKKRSKAKAEREASPADLPIDPNEPTYCLCNQVSYGEMIGCDNDECPIEWFHFSCVGLNHKPKGKWYCPKCRGENEKTMDKALEKSKKERAYNR [S126A],disrupting interaction
